From patent US20180155451A1 (published 2018)

B1: GpH7-B3 variant T335_20W/GpL16-k0 (antibody, human IgG1, kappa)
heavy: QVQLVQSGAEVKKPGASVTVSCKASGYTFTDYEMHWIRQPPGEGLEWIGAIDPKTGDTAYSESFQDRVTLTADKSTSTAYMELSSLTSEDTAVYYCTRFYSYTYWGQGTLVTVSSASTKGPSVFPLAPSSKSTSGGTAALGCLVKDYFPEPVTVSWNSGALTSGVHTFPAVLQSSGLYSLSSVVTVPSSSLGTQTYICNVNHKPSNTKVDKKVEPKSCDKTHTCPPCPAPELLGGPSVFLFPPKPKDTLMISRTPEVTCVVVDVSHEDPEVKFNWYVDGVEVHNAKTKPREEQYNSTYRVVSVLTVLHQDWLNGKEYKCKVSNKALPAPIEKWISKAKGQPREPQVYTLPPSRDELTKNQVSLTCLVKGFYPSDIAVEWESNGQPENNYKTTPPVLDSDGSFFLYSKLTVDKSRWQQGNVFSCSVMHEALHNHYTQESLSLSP
light: DIVMTQSPLSLPVTPGEPASISCQASESLVHSNRNTYLHWYLQKPGQSPQLLIYKVSNRFSGVPDRFSGSGSGTDFTLKISRVEAEDVGVYYCSQNTHVPPTFGQGTKVEIERTVAAPSVFIFPPSDEQLKSGTASVVCLLNNFYPREAKVQWKVDNALQSGNSQESVTEQDSKDSTYSLSSTLTLSKADYEKHKVYACEVTHQGLSSPVTKSFNRGEC
notes: also called Ho Ab T335_20W
B2: GpH7-B3-03-20W/GpL16-k0 (antibody, human IgG1, kappa)
heavy: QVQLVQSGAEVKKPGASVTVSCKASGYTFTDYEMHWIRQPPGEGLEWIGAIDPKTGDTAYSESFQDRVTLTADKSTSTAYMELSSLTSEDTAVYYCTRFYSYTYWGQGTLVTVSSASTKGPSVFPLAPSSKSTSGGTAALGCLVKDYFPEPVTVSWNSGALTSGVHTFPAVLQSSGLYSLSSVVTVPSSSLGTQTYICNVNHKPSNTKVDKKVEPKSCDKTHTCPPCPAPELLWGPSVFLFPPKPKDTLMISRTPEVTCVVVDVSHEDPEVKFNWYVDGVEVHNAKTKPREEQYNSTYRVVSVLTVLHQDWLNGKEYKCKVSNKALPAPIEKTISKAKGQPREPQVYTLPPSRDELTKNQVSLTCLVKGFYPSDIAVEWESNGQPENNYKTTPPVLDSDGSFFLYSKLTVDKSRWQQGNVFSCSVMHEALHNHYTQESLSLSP
light: B1 light
notes: also called Ho Ab G236_20W; GpH7-B3 variant G236_20W/GpL16-k0
B3: GpH7-B16/GpL16-k0 (antibody, human IgG1, kappa)
heavy: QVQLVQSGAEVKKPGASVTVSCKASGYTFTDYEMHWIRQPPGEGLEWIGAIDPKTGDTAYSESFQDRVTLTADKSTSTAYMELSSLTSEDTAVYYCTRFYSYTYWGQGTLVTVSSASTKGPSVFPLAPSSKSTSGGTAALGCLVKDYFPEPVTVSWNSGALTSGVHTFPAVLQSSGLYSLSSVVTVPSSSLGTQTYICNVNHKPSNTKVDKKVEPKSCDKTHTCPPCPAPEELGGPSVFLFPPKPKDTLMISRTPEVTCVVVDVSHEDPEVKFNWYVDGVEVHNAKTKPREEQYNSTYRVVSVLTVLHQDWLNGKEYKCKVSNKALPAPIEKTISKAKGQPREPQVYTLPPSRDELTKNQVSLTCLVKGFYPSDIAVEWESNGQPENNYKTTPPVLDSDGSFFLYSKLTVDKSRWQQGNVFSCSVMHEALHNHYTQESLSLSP
light: B1 light
notes: also called Ho Ab L234_10E; GpH7-B3 variant L234_10E/GpL16-k0
B4: GpH7-B3 variant V266_08L/GpL16-k0 (antibody, human IgG1, kappa)
heavy: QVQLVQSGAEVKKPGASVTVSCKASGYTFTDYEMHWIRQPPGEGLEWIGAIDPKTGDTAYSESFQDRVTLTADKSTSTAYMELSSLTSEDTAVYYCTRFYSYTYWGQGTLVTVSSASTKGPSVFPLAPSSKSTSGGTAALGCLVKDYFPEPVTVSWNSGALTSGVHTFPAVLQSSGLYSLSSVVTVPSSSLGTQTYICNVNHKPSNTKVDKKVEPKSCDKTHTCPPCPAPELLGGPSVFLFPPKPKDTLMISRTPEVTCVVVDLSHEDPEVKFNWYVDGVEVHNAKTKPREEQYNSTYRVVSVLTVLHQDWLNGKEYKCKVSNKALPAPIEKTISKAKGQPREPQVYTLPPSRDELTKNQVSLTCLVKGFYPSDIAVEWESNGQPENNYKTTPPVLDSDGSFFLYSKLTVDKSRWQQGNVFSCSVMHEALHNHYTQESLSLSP
light: B1 light
notes: also called Ho Ab V266_08L
B5: GpH7-B3-01-15Y/GpL16-k0 (antibody, human IgG1, kappa)
heavy: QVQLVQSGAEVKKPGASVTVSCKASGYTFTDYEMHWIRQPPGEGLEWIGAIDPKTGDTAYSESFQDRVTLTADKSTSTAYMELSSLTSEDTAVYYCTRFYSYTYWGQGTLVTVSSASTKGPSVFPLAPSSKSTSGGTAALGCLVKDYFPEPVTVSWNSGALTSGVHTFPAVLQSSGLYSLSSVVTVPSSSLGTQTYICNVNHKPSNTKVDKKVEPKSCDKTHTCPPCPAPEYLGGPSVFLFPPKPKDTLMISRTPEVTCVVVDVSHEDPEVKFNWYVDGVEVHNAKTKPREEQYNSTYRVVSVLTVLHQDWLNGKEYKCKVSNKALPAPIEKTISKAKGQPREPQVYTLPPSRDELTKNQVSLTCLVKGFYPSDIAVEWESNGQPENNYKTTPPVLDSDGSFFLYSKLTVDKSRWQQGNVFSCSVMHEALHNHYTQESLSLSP
light: B1 light
notes: also called Ho Ab L234_15Y; GpH7-B3 variant L234_15Y/GpL16-k0
B6: GpH7-B17/GpL16-k0 (antibody, human IgG1, kappa)
heavy: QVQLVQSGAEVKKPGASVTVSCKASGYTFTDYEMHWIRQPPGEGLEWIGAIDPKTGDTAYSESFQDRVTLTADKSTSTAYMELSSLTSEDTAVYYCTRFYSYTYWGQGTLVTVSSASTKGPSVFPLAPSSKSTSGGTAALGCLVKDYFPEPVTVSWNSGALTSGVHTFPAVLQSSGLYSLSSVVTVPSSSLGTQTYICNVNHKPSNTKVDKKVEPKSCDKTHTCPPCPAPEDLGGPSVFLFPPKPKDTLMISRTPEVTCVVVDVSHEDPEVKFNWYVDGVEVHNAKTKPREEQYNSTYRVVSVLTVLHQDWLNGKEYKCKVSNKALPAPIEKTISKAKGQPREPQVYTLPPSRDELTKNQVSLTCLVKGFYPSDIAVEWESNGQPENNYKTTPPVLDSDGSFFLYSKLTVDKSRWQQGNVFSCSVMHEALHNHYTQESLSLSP
light: B1 light
notes: also called Ho Ab L234_09D; GpH7-B3 variant L234_09D/GpL16-k0
B7: GpH7-A5/GpH7-B3 variant E269_01G/GpL16-k0 (antibody, human IgG1, kappa)
heavy 1: not shown
heavy 2: not shown
light: B1 light
notes: heterodimerized antibody, mutation in the GpH7-B3 chain only; also called He Ab
B8: GpH7-A5/GpH7-B3 variant E269_16H/GpL16-k0 (antibody, human IgG1, kappa)
heavy 1: not shown
heavy 2: not shown
light: B1 light
notes: as for B7
B9: GpH7-A5/GpH7-B3 variant E269_14T/GpL16-k0 (antibody, human IgG1, kappa)
heavy 1: not shown
heavy 2: not shown
light: B1 light
notes: as for B7
B10: GpH7-A5/GpH7-B3 variant E269_11K/GpL16-k0 (antibody, human IgG1, kappa)
heavy 1: not shown
heavy 2: not shown
light: B1 light
notes: as for B7
B11: GpH7-A5/GpH7-B3 variant D265_12R/GpL16-k0 (antibody, human IgG1, kappa)
heavy 1: not shown
heavy 2: not shown
light: B1 light
notes: as for B7
B12: GpH7-A5/GpH7-B3 variant E269_13S/GpL16-k0 (antibody, human IgG1, kappa)
heavy 1: not shown
heavy 2: not shown
light: B1 light
notes: as for B7
B13: GpH7-A5/GpH7-B3 variant E269_03V/GpL16-k0 (antibody, human IgG1, kappa)
heavy 1: not shown
heavy 2: not shown
light: B1 light
notes: as for B7
B14: GpH7-A5/GpH7-B3 variant D265_10E/GpL16-k0 (antibody, human IgG1, kappa)
heavy 1: not shown
heavy 2: not shown
light: B1 light
notes: as for B7
B15: GpH7-A5/GpH7-B3 variant E269_02A/GpL16-k0 (antibody, human IgG1, kappa)
heavy 1: not shown
heavy 2: not shown
light: B1 light
notes: as for B7
B16: GpH7-A5/GpH7-B3 variant E269_07I/GpL16-k0 (antibody, human IgG1, kappa)
heavy 1: not shown
heavy 2: not shown
light: B1 light
notes: as for B7
B17: GpH7-A5/GpH7-B3 variant E269_06M/GpL16-k0 (antibody, human IgG1, kappa)
heavy 1: not shown
heavy 2: not shown
light: B1 light
notes: as for B7
B18: GpH7-A5/GpH7-B3 variant E269_12R/GpL16-k0 (antibody, human IgG1, kappa)
heavy 1: not shown
heavy 2: not shown
light: B1 light
notes: as for B7
B19: GpH7-A5/GpH7-B3 variant H268_06M/GpL16-k0 (antibody, human IgG1, kappa)
heavy 1: not shown
heavy 2: not shown
light: B1 light
notes: as for B7
B20: GpH7-A5/GpH7-B3 variant E269_18N/GpL16-k0 (antibody, human IgG1, kappa)
heavy 1: not shown
heavy 2: not shown
light: B1 light
notes: as for B7
B21: GpH7-A5/GpH7-B3 variant D265_16H/GpL16-k0 (antibody, human IgG1, kappa)
heavy 1: not shown
heavy 2: not shown
light: B1 light
notes: as for B7
B22: GpH7-A5/GpH7-B3 variant D265_14T/GpL16-k0 (antibody, human IgG1, kappa)
heavy 1: not shown
heavy 2: not shown
light: B1 light
notes: as for B7
B23: GpH7-A5/GpH7-B3 variant D265_11K/GpL16-k0 (antibody, human IgG1, kappa)
heavy 1: not shown
heavy 2: not shown
light: B1 light
notes: as for B7
B24: GpH7-A5/GpH7-B3 variant E269_08L/GpL16-k0 (antibody, human IgG1, kappa)
heavy 1: not shown
heavy 2: not shown
light: B1 light
notes: as for B7
B25: GpH7-A5/GpH7-B3 variant E269_15Y/GpL16-k0 (antibody, human IgG1, kappa)
heavy 1: not shown
heavy 2: not shown
light: B1 light
notes: as for B7
B26: GpH7-A5/GpH7-B3 variant E269_19Q/GpL16-k0 (antibody, human IgG1, kappa)
heavy 1: not shown
heavy 2: not shown
light: B1 light
notes: as for B7
B27: GpH7-A5/GpH7-B3 variant E269_04F/GpL16-k0 (antibody, human IgG1, kappa)
heavy 1: not shown
heavy 2: not shown
light: B1 light
notes: as for B7
B28: GpH7-A5/GpH7-B3 variant E269_20W/GpL16-k0 (antibody, human IgG1, kappa)
heavy 1: not shown
heavy 2: not shown
light: B1 light
notes: as for B7
B29: GpH7-A5/GpH7-B3 variant D265_13S/GpL16-k0 (antibody, human IgG1, kappa)
heavy 1: not shown
heavy 2: not shown
light: B1 light
notes: as for B7
B30: GpH7-A5/GpH7-B3 variant D265_19Q/GpL16-k0 (antibody, human IgG1, kappa)
heavy 1: not shown
heavy 2: not shown
light: B1 light
notes: as for B7
B31: GpH7-A5/GpH7-B3 variant D265_18N/GpL16-k0 (antibody, human IgG1, kappa)
heavy 1: not shown
heavy 2: not shown
light: B1 light
notes: as for B7

molecular target: T1, FcγRIIIa extracellular domain with C-terminal His tag (human, UniProt P08637 17-208); assay: SPR relative binding; GpH7-B3/GpL16-k0 = 100
T1 construct: extracellular domain; also called FcgRIIIa; 3a; not shown: His tag at the C terminus
T1 sequence (P08637 17-208): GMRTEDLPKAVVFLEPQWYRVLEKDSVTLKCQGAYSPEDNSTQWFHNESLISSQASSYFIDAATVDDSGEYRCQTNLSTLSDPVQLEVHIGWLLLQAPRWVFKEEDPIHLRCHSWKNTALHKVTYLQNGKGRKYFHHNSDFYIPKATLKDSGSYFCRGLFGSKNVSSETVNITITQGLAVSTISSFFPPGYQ
Experimental: (§1) Analysis of interaction between objective antibody and the FcγR was carried out using Biacore T100 (GE Healthcare). HBS-EP+ (GE Healthcare) was used as the running buffer, and the measurement temperature was set to 25° C. Chips produced by immobilizing the antigen peptide by the amine coupling method to a Series S Sencor Chip CM5 (GE Healthcare), or alternatively, chips produced by allowing preliminarily biotinylated antigen peptides to interact with and immobilize onto a Series S Sensor Chip SA (certified) (GE Healthcare) were used. Antibodies of interest were captured onto an antigen peptide-immobilized chip, and allowed to interact to each FcγR diluted with running buffer. To regenerate and repeatedly use the chip, the antibodies captured on the chip were washed off by reacting 10 mM glycine-HCl, pH 1.5.
The FcγR-binding activity of each antibody was assessed primarily using as an indicator the FcγR-binding activity and dissociation constant for FcγR.

Binder	Ho/Con_3a
B1	91.8 % of control
B2	58.3 % of control
B3	64.7 % of control
B4	90.5 % of control
B5	64.7 % of control
B6	52.8 % of control

molecular target: T2, FcγRIIa R (human, UniProt P12318 34-217); assay: SPR; He/Con_2aR divided by He/Con_2b (FcγRIIb as reference)
T2 construct: extracellular domain; also called FcgRIIa R type; 2aR
T2 sequence (looked up): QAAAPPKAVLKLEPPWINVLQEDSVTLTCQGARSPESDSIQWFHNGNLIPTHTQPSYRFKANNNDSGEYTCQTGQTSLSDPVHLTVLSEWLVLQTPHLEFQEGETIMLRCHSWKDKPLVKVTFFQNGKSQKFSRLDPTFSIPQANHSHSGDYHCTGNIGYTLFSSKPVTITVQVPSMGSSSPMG
Experimental: (§2) The heterodimerized antibodies He Abs in which one of the H chains was introduced with an alteration were assayed for their binding activities to each activating FcγR and inhibitory FcγR according to the method described in Example 4. […] The activating FcγRs in FIGS. 26, 27, 28, and 29 are FcγRIa, FcγRIIa (R), FcγRIIa (H), and FcγRIIIa, respectively.
as §1

Binder	IIaR/IIb (He_2aR/2b) [ratio]
B7	1.27
B8	1.32
B9	1.3
B10	2.14
B11	2.15
B12	1.28
B13	1.3
B14	1.52
B15	1.31
B16	1.34
B17	1.32
B18	1.39
B19	1.23
B20	1.32
B21	1.51
B22	1.61
B23	2.26
B24	1.33
B25	1.29
B26	1.31
B27	1.29
B28	1.3
B29	1.81
B30	1.64
B31	2.02

molecular target: T2, FcγRIIa R; assay: SPR (Biacore), antibody captured, FcγR as analyte; relative binding
Experimental: as §2, §1

Binder	He/Con_2aR (IIaR binding)
B7	65.3 % of GpH7-A5/GpH7-B3/GpL16-k0 (=100)
B8	50.7 % of GpH7-A5/GpH7-B3/GpL16-k0 (=100)
B9	66 % of GpH7-A5/GpH7-B3/GpL16-k0 (=100)
B10	38.1 % of GpH7-A5/GpH7-B3/GpL16-k0 (=100)
B11	32.2 % of GpH7-A5/GpH7-B3/GpL16-k0 (=100)
B12	61.2 % of GpH7-A5/GpH7-B3/GpL16-k0 (=100)
B13	58.8 % of GpH7-A5/GpH7-B3/GpL16-k0 (=100)
B14	58.2 % of GpH7-A5/GpH7-B3/GpL16-k0 (=100)
B15	65.3 % of GpH7-A5/GpH7-B3/GpL16-k0 (=100)
B16	58.8 % of GpH7-A5/GpH7-B3/GpL16-k0 (=100)
B17	61.7 % of GpH7-A5/GpH7-B3/GpL16-k0 (=100)
B18	35 % of GpH7-A5/GpH7-B3/GpL16-k0 (=100)
B19	81 % of GpH7-A5/GpH7-B3/GpL16-k0 (=100)
B20	59.2 % of GpH7-A5/GpH7-B3/GpL16-k0 (=100)
B21	58 % of GpH7-A5/GpH7-B3/GpL16-k0 (=100)
B22	25.8 % of GpH7-A5/GpH7-B3/GpL16-k0 (=100)
B23	33.7 % of GpH7-A5/GpH7-B3/GpL16-k0 (=100)
B24	57.2 % of GpH7-A5/GpH7-B3/GpL16-k0 (=100)
B25	57.6 % of GpH7-A5/GpH7-B3/GpL16-k0 (=100)
B26	57.8 % of GpH7-A5/GpH7-B3/GpL16-k0 (=100)
B27	58.2 % of GpH7-A5/GpH7-B3/GpL16-k0 (=100)
B28	55.5 % of GpH7-A5/GpH7-B3/GpL16-k0 (=100)
B29	20.5 % of GpH7-A5/GpH7-B3/GpL16-k0 (=100)
B30	54.8 % of GpH7-A5/GpH7-B3/GpL16-k0 (=100)
B31	12.4 % of GpH7-A5/GpH7-B3/GpL16-k0 (=100)

molecular target: T3, FcγRIIb (human, UniProt P31994 43-217); assay: as above
T3 construct: extracellular domain; also called FcgRIIb; 2b
T3 sequence (looked up): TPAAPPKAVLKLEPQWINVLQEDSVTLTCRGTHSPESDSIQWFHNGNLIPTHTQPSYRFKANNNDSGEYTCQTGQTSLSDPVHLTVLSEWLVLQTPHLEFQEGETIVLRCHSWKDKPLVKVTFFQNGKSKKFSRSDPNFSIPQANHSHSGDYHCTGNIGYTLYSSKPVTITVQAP
Experimental: as §2, §1

Binder	He/Con_2b (IIb binding)
B7	51.5 % of GpH7-A5/GpH7-B3/GpL16-k0 (=100)
B8	38.5 % of GpH7-A5/GpH7-B3/GpL16-k0 (=100)
B9	50.6 % of GpH7-A5/GpH7-B3/GpL16-k0 (=100)
B10	17.8 % of GpH7-A5/GpH7-B3/GpL16-k0 (=100)
B11	15 % of GpH7-A5/GpH7-B3/GpL16-k0 (=100)
B12	47.8 % of GpH7-A5/GpH7-B3/GpL16-k0 (=100)
B13	45.1 % of GpH7-A5/GpH7-B3/GpL16-k0 (=100)
B14	38.2 % of GpH7-A5/GpH7-B3/GpL16-k0 (=100)
B15	49.9 % of GpH7-A5/GpH7-B3/GpL16-k0 (=100)
B16	43.9 % of GpH7-A5/GpH7-B3/GpL16-k0 (=100)
B17	46.7 % of GpH7-A5/GpH7-B3/GpL16-k0 (=100)
B18	25.2 % of GpH7-A5/GpH7-B3/GpL16-k0 (=100)
B19	65.7 % of GpH7-A5/GpH7-B3/GpL16-k0 (=100)
B20	44.8 % of GpH7-A5/GpH7-B3/GpL16-k0 (=100)
B21	38.3 % of GpH7-A5/GpH7-B3/GpL16-k0 (=100)
B22	16 % of GpH7-A5/GpH7-B3/GpL16-k0 (=100)
B23	14.9 % of GpH7-A5/GpH7-B3/GpL16-k0 (=100)
B24	42.9 % of GpH7-A5/GpH7-B3/GpL16-k0 (=100)
B25	44.7 % of GpH7-A5/GpH7-B3/GpL16-k0 (=100)
B26	44.3 % of GpH7-A5/GpH7-B3/GpL16-k0 (=100)
B27	45 % of GpH7-A5/GpH7-B3/GpL16-k0 (=100)
B28	42.5 % of GpH7-A5/GpH7-B3/GpL16-k0 (=100)
B29	11.3 % of GpH7-A5/GpH7-B3/GpL16-k0 (=100)
B30	33.4 % of GpH7-A5/GpH7-B3/GpL16-k0 (=100)
B31	6.1 % of GpH7-A5/GpH7-B3/GpL16-k0 (=100)
